In patent publication US20090304651A1 (published 2009):

Target: T1, recombinant human IGF-II (Insulin-like Growth Factor II) (human, UniProt P01344 25-91, biotinylated (Biotinyl-IGF-II, GroPep) where immobilised in SPR, site not stated; not biotinylated in ITC and as SPR analyte)
T1 construct: also called IGF2; IGF-2
Assay: ITC
Method: Calorimetric measurements were performed using a VP-ITC microcalorimeter (MicroCal). All solutions were thoroughly degassed before use by stirring under vacuum. […] The sample cell contained either wild type domain 11 (7 uM) or the E1544A mutant (8 μM), also in HBS-E buffer. To correct for the heat effects of dilution and mixing, reaction heats obtained from a control experiment, in which IGF2 was injected into HBS-E, were subtracted. Calorimetric data were analysed using MicroCal ORIGIN software (version 5.0) supplied with the instrument. Thermodynamic parameters were derived by fitting the binding isotherms to a single-site binding model. Values for dissociation affinity constants (KD) were determined from duplicate experiments.
In order to validate the SPR sensorgram data, ITC was used to assess the binding affinity between domain 11 and IGF-II. The affinity of the E1544A mutant was also assessed by ITC in order to confirm whether use of a second technique agreed as to the apparent increase in affinity (FIG. 6 and Table 6). Titrations were performed using 17×15 μl injections of 40 μM IGF-II (after an initial 7.51 injection) into the reaction cell containing wild type domain 11 or the E1544A mutant. […] The two fold differences may be simply accounted for by the fidelity of both techniques.

T1 sequence (P01344 25-91 limits assumed): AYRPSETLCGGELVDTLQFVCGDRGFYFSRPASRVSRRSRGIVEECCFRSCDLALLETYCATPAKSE

B1: IGF2R domain 11 E1544A (amino acids 1511-1650, C-terminal His6 tag, from Pichia pastoris) (receptor)
chain: NEHDDCQVTNPSTGHLFDLSSLSGRAGFTAAYSAKGLVYMSICGENENCPPGVGACFGQTRISVGKANKRLRYVDQVLQLVYKDGSPCPSKSGLSYKSVISFVCRPEAGPTNRPMLISLDKQTCTLFFSWHTPLACEQATHHHHHH
relative affinity increase over wild type: ~2 fold
